We go through two molecules from patent US9433687B2, “Anti-Notch3 antibodies and antibody-drug conjugates” (Pfizer Inc., priority 2012, dated 2016).

One data set concerns the target T1, human Notch1 NRR-Fc (Homo sapiens, UniProt P46531).
T1 construct: Expression constructs encoding human Notch1 and Notch2 NRR regions, fused with human IgG1 Fc fragments; made in house; host or cells: CHO-PACE cells
T1 sequence (P46531 1446-1733 limits assumed): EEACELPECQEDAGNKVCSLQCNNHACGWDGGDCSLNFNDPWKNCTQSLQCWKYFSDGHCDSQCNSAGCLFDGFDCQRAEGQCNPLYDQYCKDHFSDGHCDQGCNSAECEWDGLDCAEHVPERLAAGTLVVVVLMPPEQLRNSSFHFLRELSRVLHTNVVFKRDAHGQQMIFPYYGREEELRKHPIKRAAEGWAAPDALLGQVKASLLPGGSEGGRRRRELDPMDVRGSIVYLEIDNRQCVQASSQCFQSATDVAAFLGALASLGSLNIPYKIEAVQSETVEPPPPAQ
Nature of the data set: Binding to Notch1 NRR-Fc. The conditions noted are these: N/B = non-binding. An excerpt: (§1) Other members of the Notch receptor family play important roles in biological processes. For example, a Notch1 or Notch2 deficiency leads to embryonic death in mouse models. In contrast, a Notch4 deficiency results in no detectable phenotype in mouse models. The closest homologues of the Notch3 NRR region are Notch1 and Notch2 (˜50% homology), and Notch4 is a more distant homologue (˜30% homology). Cross-reactivity of anti-Notch3 antibodies to other members of the Notch family, especially Notch1 and 2, may lead to undesired effects in patients. Therefore, the potential cross-reactivity of r28 and hu28, along with r75 and hu75 to other Notch family members were assessed.
(§2) Expression constructs encoding human Notch1 and Notch2 NRR regions, fused with human IgG1 Fc fragments were stably introduced into CHO-PACE cells. Conditioned media from these cells expressing NRR-Fc fusions were collected. Human Notch2 NRR-Fc and human Notch1 NRR-Fc were purified by protein A affinity followed by size exclusion chromatography (SEC). Purified preparations were dialysed into TBS with 1 mM CaCl2 and analyzed on analytical SEC to be >99% in purity.

Data set [1] in a line: Thermal stability by differential scanning calorimetry (DSC). Type of data set: physicochemical. As to conditions: 0.3 mg/ml in PBS. The method, then:
There is a positive correlation between the thermal stability of a protein or protein domain with the overall stability of the protein or protein domain. A higher melting point of a protein or protein domain often provides improved manufacturability and longer shelf life. Differential scanning calorimetry (DSC) was used to assess the thermal stability of hu28 and hu75 versus ch28 and ch75, respectively. Protein samples were diluted in PBS to 0.3 mg/ml in a volume of 250 μl. The corresponding formulation buffer blank was used for the reference sample. Both samples were thoroughly degassed using a MicroCal ThermoVac Sample Degassing and Thermostat (Microcal, Inc., Northampton, Mass.) set to 8° C. Samples were dispensed into the appropriate cells of a MicroCal VP-DSC Capillary Cell MicroCalorimter (MicroCal, Inc., Northampton, Mass.). Samples were equilibrated for 4 minutes at 15° C. and then scanned up to 100° C. at a rate of 100° C. per hour. A filtering period of 20 seconds was selected. Raw data was baseline corrected and the protein concentration was normalized. Origin Software (OriginLab Corporation, Northampton, Mass.) was used to fit the data to an MN2-State Model with an appropriate number of transitions.

Data set [2] concerns the target T2, human Notch3 NRR recombinant protein (Homo sapiens, UniProt Q9UM47).
T2 construct: made in house
T2 sequence (Q9UM47 with tags, fused parts or gaps): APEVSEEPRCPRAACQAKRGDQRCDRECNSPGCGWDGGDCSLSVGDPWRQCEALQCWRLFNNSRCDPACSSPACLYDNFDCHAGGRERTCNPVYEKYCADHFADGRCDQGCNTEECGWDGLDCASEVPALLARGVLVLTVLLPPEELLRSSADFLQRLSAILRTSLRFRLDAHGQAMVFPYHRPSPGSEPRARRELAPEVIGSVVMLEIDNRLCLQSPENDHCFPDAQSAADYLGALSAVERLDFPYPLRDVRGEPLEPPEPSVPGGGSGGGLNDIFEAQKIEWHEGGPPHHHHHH
Nature of the data set: Surface plasmon resonance (Biacore) kinetic analysis. Type of data set: binding. As to conditions: antibody captured; 1:1 Langmuir model. The procedure: The kinetic constants of the anti-Notch3 NRR interactions were determined by surface plasmon resonance (Biacore® T100, Biacore Inc., Piscataway, N.J.). Flow cells of a CM5 chip were immobilized with approximately 10,000 response units (RU) of anti-human IgG-Fc (Biacore®) in 10 mM Glycine, pH 5.0 at 10 μl/min for 600 seconds. 10 μg/ml of anti-Notch3 antibodies ch28 and hu28, and ch75 and hu75 were diluted in TBS with 1 mM CaCl2 were captured at 10 μl/min. Association of four concentrations of human Notch3 NRR recombinant protein (from 3.7-100 nM) and a zero concentration (running buffer) at 100 μl/min were recorded for 3 minutes in TBS with 1 mM CaCl2. Dissociation of the complexes was measured for 10 minutes. The surface of the chip was regenerated by injecting 3M MgCl2 with 3 mM EGTA for 60 seconds at 10 μl/min. Curves obtained after subtraction of the reference and buffer signals were fitted to a 1:1 Langmuir binding model with Biacore® T100 Evaluation Software (Biacore®).
A general note: SPR reads the build-up and loss of mass on a sensor chip optically.

A further data set has as its target T3, human Notch2 NRR-Fc (Homo sapiens, UniProt Q04721).
T3 construct: Expression constructs encoding human Notch1 and Notch2 NRR regions, fused with human IgG1 Fc fragments; made in house; host or cells: CHO-PACE cells
T3 sequence (Q04721 1425-1677 limits assumed): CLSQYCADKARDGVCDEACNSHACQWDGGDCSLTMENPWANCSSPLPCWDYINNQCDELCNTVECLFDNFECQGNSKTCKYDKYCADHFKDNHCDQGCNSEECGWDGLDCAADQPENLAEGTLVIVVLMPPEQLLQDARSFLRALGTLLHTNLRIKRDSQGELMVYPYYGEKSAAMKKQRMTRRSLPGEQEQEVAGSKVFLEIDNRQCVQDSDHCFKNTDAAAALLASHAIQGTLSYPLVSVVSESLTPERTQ
Description: Binding to Notch2 NRR-Fc. The conditions noted are these: N/B = non-binding.
From the text: as §1, §2

B1: hu28 VH1.0/VL1.0: humanized r28 variant VH1.0/VL1.0, anti-Notch3 antibody (VH SEQ ID NO: 13, VL SEQ ID NO: 25) (antibody, V domains shown)
VH: EVQLVESGGGLVQPGGSLRLSCAASGFTFRDYGMTWVRQAPGKGLEWVAYISSGSNYIYYAEAVKGRFTISRDNAKNSLYLQMNSLRAEDTAVYYCARRGPFVLDAWGQGTLVTVSS
VL: DIQMTQSPSSLSASVGDRVTITCKASQSINRYLHWYQQKPGKAPKLLIYNANGLQTGVPSRFSGSGSGTDFTLTISSLQPEDFATYYCLQHNTWPDTFGGGTKVEIK
For the molecule B1, in the data set with human Notch1 NRR-Fc, the “Binding to Notch1 NRR-Fc” value was “N/B”. Also, in data set [1], the “Tm ± Standard Deviation, CH2” value is 72.63 ± 0.03 °C; the “Tm ± Standard Deviation, CH3” value was found to be 83.45 ± 0.17 °C; the “Tm ± Standard Deviation, Fab” value came to 83.45 ± 0.17 °C. In data set [2], the ka turned out to be 386000 M⁻¹ s⁻¹ and the kd was determined as 0.000347 s⁻¹. Also, in the data set with human Notch2 NRR-Fc, the “Binding to Notch2 NRR-Fc” value is reported as “N/B”.

B2: ch75: rat-human chimeric anti-Notch3 antibody 75, rat variable regions fused with human IgG1 and human kappa (antibody, V domains shown)
VH: QVKLLQSGAALVKPGASVKMSCKASGYAFTDYWVTWVKQSHGKSLEWIGEISPNSGGTNFNEKFKGKATLTVDKSTSTAYMELSRLTSEDSAIYYCTRGEIRYNWFAYWGQGTLVTVSS
VL: NIVMTQSPKSMSISVGDRVTMNCKASQNVGNNIAWYQQKPGQSPKLLIYYASNRYTGVPDRFTGGGYGTDFTLTINSMQAEDAAFYYCQRLYNSPFTFGSGTKLEIK
Regarding B2, in the data set with human Notch1 NRR-Fc, the “Binding to Notch1 NRR-Fc” value was “N/B”. In data set [1], the “Tm ± Standard Deviation, CH2” value came out at 73.32 ± 0.01 °C; the “Tm ± Standard Deviation, CH3” value was 84.59 ± 0.03 °C; the “Tm ± Standard Deviation, Fab” value was determined as 73.32 ± 0.01 °C. Also, in data set [2], the ka is 57000 M⁻¹ s⁻¹ and the kd stood at 0.000992 s⁻¹. The “Binding to Notch2 NRR-Fc” value with human Notch2 NRR-Fc was “N/B”.
